Experimental data: publication PMC8691596 (PLoS ONE, 2021)

B1: cynomolgus monkey FcγRIIb extracellular domain, C-terminal hexa-His (receptor)
chain: TPAAPPKAVLKLEPPWINVLREDSVTLTCGGAHSPDSDSTQWFHNGNLIPTHTQPSYRFKANNNDSGEYRCQTGRTSLSDPVHLTVLSEWLALQTPHLEFREGETIMLRCHSWKDKPLIKVTFFQNGKSKKFSHMDPNFSIPQANHSHSGDYHCTGNIGYTPYSSKPVTITVQVP
B2: cynomolgus monkey FcγRIIa extracellular domain, C-terminal hexa-His (receptor)
chain: KAVLKLEPPWINVLREDSVTLTCGGAHSPDSDSTQWFHNGNLIPTHTQPSYRFKANNNDSGEYRCQTGRTSLSDPVHLTVLSEWLALQTTHLEFREGETIMLRCHSWKDKPLIKVAFFQNGKSKKFSHMNPNFSIPQANHSHSGDYHCTGNIGYTPYSSKPVTITVQGLSSLVPSVGSSSPTG
B3: cynomolgus monkey FcγRI extracellular domain, C-terminal hexa-His (receptor)
chain: QVDTTKAVITLQPPWVSVFQEETVTLQCEVPRLPGSSSTQWFLNGTATQTSTPSYRITSASVKDSGEYRCQRGPSGRSDPIQLEIHRDWLLLQVSSRVFTEGEPLALRCHAWKDKLVYNVLYYQNGKAFKFFYRNSQLTILKTNISHNGAYHCSGMGKHRYTSAGVSVTVKELFPAPVLNASVTSPLLEGNLVTLSCETKLLLQRPGLQLYFSFYMGSKTLRGRNTSSEYQILTARREDSGFYWCEATTEDGNVLKRSPELELQVLGLQLPTPVWLH

Molecular target: T1, anti-CD20 IgG1 L234S/L235T/G236R (human)
T1 construct: rituximab VH, as in m1; human IgG1 constant region; as the light chain of m1; also called 2–52; variant 52; source: HEK293, transient, purified (Protein A)
Assay: SPR; antibody captured by biotin-labelled anti-human κ light chain on streptavidin CM5; soluble Fcγ receptor injected at one concentration (12.5 nM to 18 μM); HBS-EP+ pH 7.4, 25°C; Biacore 8K
Conditions: both partners purified

response, < 1 RU:
B1
B2
B3
